Results: the supplement of paper PMC7877785
± gives the uncertainty stated by the source.

Test: self-splicing fitness, log relative to wild type (ln ratio); higher = more splicing; Tetrahymena group I intron in knt gene, E. coli kanamycin selection, DiMSum; sequences stand for … in CUCUCU…GGAGGGAAAAGUUAUCAGGCAUGCACCUGGUAGCUAGUCUUUAAACCAAUAGAUUGCAUCGGUUUAAAAGGCAAGACCGUCAAAUUGCGGGAAAGGGGUCAACAGCCGUUCAGUACCAAGUCUCAGGGGAAACUUUGAGAUGGCCUUGCAAAGGGUAUGGUAAUAAGCUGACGGACAUGGUCCUAACCACGCAGCCAAGUCCUAAGUCAACAGAUCUUCUGUUGAUAUGGAUGCAGUUCACAGACUAAAUGUCGGUCGGGGAAGAUGUAUUCUUCUCAUAAGAUAUAGUCGGACCUCUCCUUAAUGGGAGCUAGCGGAUGAAGUGAUGCAACACUGGAGCCGCUGGGAACUAAUUUGUAUGCGAAAGUAUAUUGAUUAGUUUUGGAGUACUCGUGGUCG
Outline: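 A randomised library covering all eight P1ex-region intron nucleotides was built with the intron in the knt kanamycin-resistance gene on pET-22b(+) and held in E. coli BL21(DE3). Cells were grown overnight at 37°C or 30°C on LB agar, with or without 25 μg/mL kanamycin, plus 100 μg/mL carbenicillin, 50 μM IPTG and 0.2% rhamnose, and pooled colonies were amplicon-sequenced on an Illumina HiSeq 2500. DiMSum fitness is the error-weighted combination of wild-type-normalised replicate fold changes, kanamycin versus none.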

UUCGAGCAAUAUUACGAGAU
self-splicing fitness (ln) (30 °C): -3.95 ± 0.35 | self-splicing fitness (ln) (37 °C): -2.34 ± 0.31

UUCGAGCAAUAUUACGAUAU
self-splicing fitness (ln) (30 °C): -3.85 ± 0.33 | self-splicing fitness (ln) (37 °C): -2.51 ± 0.49

UUCGAGCAAUAUUACGAUCA
self-splicing fitness (ln) (30 °C): -1.89 ± 0.2 | self-splicing fitness (ln) (37 °C): -0.432 ± 0.14

UUCGAGCAAUAUUACGCAAA
self-splicing fitness (ln) (30 °C): -0.773 ± 0.28 | self-splicing fitness (ln) (37 °C): -1.92 ± 0.26

UUCGAGCAAUAUUACGCACC
self-splicing fitness (ln) (30 °C): -3.33 ± 0.29 | self-splicing fitness (ln) (37 °C): -1.91 ± 0.24

UUCGAGCAAUAUUACGCAUC
self-splicing fitness (ln) (30 °C): -2.83 ± 0.39

UUCGAGCAAUAUUACGCCAA
self-splicing fitness (ln) (30 °C): -2.89 ± 0.48 | self-splicing fitness (ln) (37 °C): -2.07 ± 0.27

UUCGAGCAAUAUUACGCGUA
self-splicing fitness (ln) (30 °C): -1.94 ± 0.14 | self-splicing fitness (ln) (37 °C): -1.51 ± 0.12

UUCGAGCAAUAUUACGCGUC
self-splicing fitness (ln) (30 °C): -2.99 ± 0.23 | self-splicing fitness (ln) (37 °C): -2.34 ± 0.37

UUCGAGCAAUAUUACGCGUU
self-splicing fitness (ln) (30 °C): -1.87 ± 0.22 | self-splicing fitness (ln) (37 °C): -1.88 ± 0.27

UUCGAGCAAUAUUACGCUCU
self-splicing fitness (ln) (30 °C): -3.38 ± 0.15 | self-splicing fitness (ln) (37 °C): -2.43 ± 0.14

UUCGAGCAAUAUUACGCUUA
self-splicing fitness (ln) (30 °C): -2.79 ± 0.21 | self-splicing fitness (ln) (37 °C): -1.58 ± 0.18

UUCGAGCAAUAUUACGGAAA
self-splicing fitness (ln) (30 °C): -1.51 ± 0.18 | self-splicing fitness (ln) (37 °C): -2.84 ± 0.32

UUCGAGCAAUAUUACGGAAG
self-splicing fitness (ln) (30 °C): -2.42 ± 0.22 | self-splicing fitness (ln) (37 °C): -2.12 ± 0.4

UUCGAGCAAUAUUACGGCGC
self-splicing fitness (ln) (30 °C): -2.99 ± 0.34 | self-splicing fitness (ln) (37 °C): -2.36 ± 0.39

UUCGAGCAAUAUUACGGGUA
self-splicing fitness (ln) (30 °C): -1.16 ± 0.18 | self-splicing fitness (ln) (37 °C): -1.36 ± 0.15

UUCGAGCAAUAUUACGUCCA
self-splicing fitness (ln) (30 °C): -2.49 ± 0.31 | self-splicing fitness (ln) (37 °C): -1.75 ± 0.44

UUCGAGCAAUAUUACGUCUA
self-splicing fitness (ln) (30 °C): -1.29 ± 0.15 | self-splicing fitness (ln) (37 °C): -0.414 ± 0.13

UUCGAGCAAUAUUACGUUAU
self-splicing fitness (ln) (30 °C): -2.58 ± 0.2 | self-splicing fitness (ln) (37 °C): -2.82 ± 0.38

UUCGAGCAAUAUUACGUUCC
self-splicing fitness (ln) (30 °C): -2.94 ± 0.26 | self-splicing fitness (ln) (37 °C): -1.19 ± 0.3

UUCGAGCAAUAUUACGUUUU
self-splicing fitness (ln) (30 °C): -3.49 ± 0.18 | self-splicing fitness (ln) (37 °C): -2.77 ± 0.2

UUCUAGCAAUAUUACGAAUG
self-splicing fitness (ln) (30 °C): -2.45 ± 0.4

UUCUAGCAAUAUUACGACCG
self-splicing fitness (ln) (30 °C): -1.13 ± 0.26 | self-splicing fitness (ln) (37 °C): -1.07 ± 0.42

UUCUAGCAAUAUUACGACUG
self-splicing fitness (ln) (30 °C): -1.64 ± 0.17 | self-splicing fitness (ln) (37 °C): -0.702 ± 0.2

UUCUAGCAAUAUUACGAGUA
self-splicing fitness (ln) (30 °C): -0.88 ± 0.15 | self-splicing fitness (ln) (37 °C): -0.0809 ± 0.13

UUCUAGCAAUAUUACGCACA
self-splicing fitness (ln) (30 °C): -0.654 ± 0.27 | self-splicing fitness (ln) (37 °C): -0.205 ± 0.23

UUCUAGCAAUAUUACGCAGU
self-splicing fitness (ln) (30 °C): -3.89 ± 0.43 | self-splicing fitness (ln) (37 °C): -3.11 ± 0.35

UUCUAGCAAUAUUACGCAUU
self-splicing fitness (ln) (30 °C): -1.95 ± 0.29 | self-splicing fitness (ln) (37 °C): -1.5 ± 0.35

UUCUAGCAAUAUUACGCUGC
self-splicing fitness (ln) (37 °C): -2.1 ± 0.38

UUCUAGCAAUAUUACGGAUA
self-splicing fitness (ln) (30 °C): -1.44 ± 0.17 | self-splicing fitness (ln) (37 °C): -0.551 ± 0.15

UUCUAGCAAUAUUACGGCCU
self-splicing fitness (ln) (30 °C): -3.05 ± 0.38

UUCUAGCAAUAUUACGGGGA
self-splicing fitness (ln) (30 °C): -0.859 ± 0.21 | self-splicing fitness (ln) (37 °C): -0.995 ± 0.21

UUCUAGCAAUAUUACGGUGU
self-splicing fitness (ln) (30 °C): -3.4 ± 0.32 | self-splicing fitness (ln) (37 °C): -2.91 ± 0.37

UUCUAGCAAUAUUACGUCCG
self-splicing fitness (ln) (30 °C): -1.45 ± 0.25 | self-splicing fitness (ln) (37 °C): -0.81 ± 0.31

UUCUAGCAAUAUUACGUCGG
self-splicing fitness (ln) (30 °C): -3.54 ± 0.26 | self-splicing fitness (ln) (37 °C): -3.1 ± 0.29

UUCUAGCAAUAUUACGUGAC
self-splicing fitness (ln) (30 °C): -3.69 ± 0.31 | self-splicing fitness (ln) (37 °C): -1.61 ± 0.24

UUCUAGCAAUAUUACGUGGC
self-splicing fitness (ln) (30 °C): -3.1 ± 0.24

UUCUAGCAAUAUUACGUGUC
self-splicing fitness (ln) (30 °C): -3.35 ± 0.19 | self-splicing fitness (ln) (37 °C): -3.01 ± 0.21

UUGAAGCAAUAUUACGAAUA
self-splicing fitness (ln) (30 °C): -0.868 ± 0.12 | self-splicing fitness (ln) (37 °C): -1.13 ± 0.15

UUGAAGCAAUAUUACGACCC
self-splicing fitness (ln) (30 °C): -3.15 ± 0.28 | self-splicing fitness (ln) (37 °C): -0.772 ± 0.17

UUGAAGCAAUAUUACGACCG
self-splicing fitness (ln) (30 °C): -0.105 ± 0.28 | self-splicing fitness (ln) (37 °C): 0.113 ± 0.28

UUGAAGCAAUAUUACGACCU
self-splicing fitness (ln) (30 °C): 0.0483 ± 0.11 | self-splicing fitness (ln) (37 °C): 0.587 ± 0.14

UUGAAGCAAUAUUACGACUG
self-splicing fitness (ln) (30 °C): -0.106 ± 0.073 | self-splicing fitness (ln) (37 °C): 0.183 ± 0.097

UUGAAGCAAUAUUACGAGAG
self-splicing fitness (ln) (30 °C): -1.5 ± 0.12 | self-splicing fitness (ln) (37 °C): -0.926 ± 0.14

UUGAAGCAAUAUUACGAGCG
self-splicing fitness (ln) (30 °C): -0.107 ± 0.089 | self-splicing fitness (ln) (37 °C): 0.65 ± 0.14

UUGAAGCAAUAUUACGAUCG
self-splicing fitness (ln) (30 °C): -0.0761 ± 0.14 | self-splicing fitness (ln) (37 °C): 0.264 ± 0.19

UUGAAGCAAUAUUACGAUGU
self-splicing fitness (ln) (30 °C): -1.61 ± 0.067 | self-splicing fitness (ln) (37 °C): -0.962 ± 0.11

UUGAAGCAAUAUUACGCAUU
self-splicing fitness (ln) (30 °C): -3.34 ± 0.23 | self-splicing fitness (ln) (37 °C): -3.18 ± 0.25
